US20260115256A1 (HANGZHOU SCIWIND BIOSCIENCES, published 2026)
*1 amine or outer side, *2 acyl side, *3 side chain or, on linkers, in order; H or OH if unused. Bridges are numbered along the chain shown (N, C = ends). Primed or numbered codes have the meaning given here. Where no end group is shown, it is not given here. Side-chain parts run from the residue outwards. [ ]: non-standard residue; d: D form. The star is where a group is joined. C20 diacid = O=C(O)CCCCCCCCCCCCCCCCCCC(=O)*; γGlu = O=C(O)[C@H](CCC(=O)[*:2])N[*:1]; βAsp = O=C(O)[C@H](CC(=O)[*:2])N[*:1]; Hyp = O=C(O)[C@@H]1C[C@@H](O)CN1; Aad = N[C@@H](CCCC(=O)O)C(=O)O; αMeP = C[C@@]1(C(=O)O)CCCN1; Orn = NCCC[C@H](N)C(=O)O; Aze = O=C(O)[C@@H]1CCN1; Dab = NCC[C@H](N)C(=O)O; Inp′ = not defined here; Pip′ = not defined here; Dap = NC[C@H](N)C(=O)O; AEEA = NCCOCCOCC(=O)O

T1: human amylin receptor (AMY3) on CHO-K1/Ga15/AMY3 cells (human, UniProt P30988 25-474; O60896 24-148)
T1 sequence (looked up) 1: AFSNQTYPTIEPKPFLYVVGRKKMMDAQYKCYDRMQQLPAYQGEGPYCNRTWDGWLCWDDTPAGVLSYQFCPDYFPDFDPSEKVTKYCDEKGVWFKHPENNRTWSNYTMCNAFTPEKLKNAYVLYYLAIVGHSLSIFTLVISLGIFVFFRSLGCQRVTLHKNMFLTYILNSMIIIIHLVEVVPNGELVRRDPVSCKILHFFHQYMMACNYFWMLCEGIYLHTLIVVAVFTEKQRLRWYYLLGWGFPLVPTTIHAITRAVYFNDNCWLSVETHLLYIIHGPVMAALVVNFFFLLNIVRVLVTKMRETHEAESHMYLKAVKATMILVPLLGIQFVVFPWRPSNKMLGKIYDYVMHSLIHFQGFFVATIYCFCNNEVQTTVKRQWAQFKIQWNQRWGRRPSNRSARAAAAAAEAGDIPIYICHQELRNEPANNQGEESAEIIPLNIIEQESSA
T1 sequence (looked up) 2: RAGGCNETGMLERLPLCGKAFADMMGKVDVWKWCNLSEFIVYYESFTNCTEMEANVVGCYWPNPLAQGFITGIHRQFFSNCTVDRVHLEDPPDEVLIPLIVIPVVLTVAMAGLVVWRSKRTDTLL


target: T1, human amylin receptor (AMY3) on …; assay: cell-based or functional assay

| Binder | EC50, CRE-luciferase assay [nM] |
| --- | --- |
| K([γGlu-C20 diacid])CNTATCATQRLADFLRHSSNNFGPILPPTNVGSNT[Hyp]-NH2 (disulfide 2-7 (inferred)) [PD068] | 0.032 |
| {C20 diacid-AEEA-AEEA-Inp′}-KCNTATCATQRLADFLRHSSNNLKPILPPTNVGSNTP-NH2 (disulfide 2-7 (inferred)) [PD192] | 0.087 |
| {C20 diacid-γGlu}-KCNTATCATQRLADFLRHSSNNFGPILPPTNVGSNT[Hyp]-NH2 (disulfide 2-7 (inferred)) [PD067] | 0.034 |
| RCNTATCATQRLADFLRHSSNNLK([γGlu-C20 diacid])PILPPTNVGSNT[αMeP]-NH2 (disulfide 2-7 (inferred)) [PD064] | 0.055 |
| RCNTATCATQRLAEFLRHSSNK([AEEA-AEEA-γGlu-C20 diacid])LGPILPPTNVGSNTP-NH2 (disulfide 2-7 (inferred)) [PD002] | 0.119 |
| {C20 diacid-βAsp-AEEA-AEEA}-KCNTATCATQRLADFLRHSSNNLKPILPPTNVGSNTP-NH2 (disulfide 2-7 (inferred)) [PD195] | 0.025 |
| RCNTATCATQRLAEFLRHSSNNK([AEEA-AEEA-γGlu-C20 diacid])GPILPPTNVGSNTP-NH2 (disulfide 2-7 (inferred)) [PD003] | 0.14 |
| CNTATCATQRLADFLRHSSNNLK([γGlu-C20 diacid])PILPPTNVGSNTX-NH2 (disulfide 1-6 (inferred); not fully specified (residue 36); printed as CNTATCATQRLADFLRHSSNNLKPILPPTNVGSNT-trans-Hyp-NH2) [PD054] | 0.049 |
| RCNTATCATQRLAEFLRHSSNNLK([AEEA-AEEA-γGlu-C20 diacid])PILPPTNVGSNTP-NH2 (disulfide 2-7 (inferred)) [PD004] | 0.102 |
| RCNTATCATQRLADFLRHSSNNLK([γGlu-C20 diacid])PILPPTNVGSNT[Aze]-NH2 (disulfide 2-7 (inferred)) [PD060] | 0.246 |
| K([γGlu-C20 diacid])CNTATCATQRLAEFLRHSSNNFGPILPPTNVGSNTP-NH2 (ends and bridges not checked) [PD066] | 0.044 |
| {C20 diacid-γGlu}-RCNTATCATQRLADFLRHSSNNLRPILPPTNVGSNTP-NH2 (disulfide 2-7 (inferred)) [PD197] | 0.025 |
| RCNTATCATQRLA[Aad]FLRHSSNNLK([γGlu-C20 diacid])PILPPTNVGSNTP-NH2 (disulfide 2-7 (inferred)) [PD043] | 1.13 |
| CNTATCATQRLAEFLRHSSNNLK([γGlu-C20 diacid])PILPPTNVGSNTX-NH2 (disulfide 1-6 (inferred); not fully specified (residue 36); printed as CNTATCATQRLAEFLRHSSNNLKPILPPTNVGSNT-trans-Hyp-NH2) [PD053] | 0.075 |
| RCNTATCATQRLAEFLRHSSNNLK([γGlu-C20 diacid])PILPPTNVGSNT[Aze]-NH2 (disulfide 2-7 (inferred)) [PD059] | 0.939 |
| {C20 diacid}-D[AEEA][AEEA]KCNTATCATQRLADFLRHSSNNLKPILPPTNVGSNTP-NH2 (disulfide 5-10 (inferred)) [PD193] | 0.074 |
| RCNTATCATQRLAEFLRHSSNNLK([γGlu-C20 diacid])PILPPTNVGSNT[3‑Am‑Pro]-NH2 (disulfide 2-7 (inferred)) [PD061] | 0.815 |
| RCNTATCATQRLAEFLRHSSNNLK([γGlu-C20 diacid])PILPPTNVGSNTP-NH2 (disulfide 2-7 (inferred)) [PD047] | 0.073 |
| K([γGlu-C20 diacid])CNTATCATQRLADFLRHSSNNLGPILPPTNVGSNT[Hyp]-NH2 (disulfide 2-7 (inferred)) [PD070] | 0.038 |

Further lines, results first:

| EC50, CRE-luciferase assay [nM] | Binder |
| --- | --- |
| 0.101 | RCNTATCATQRLAEFLRHSSNNLK([γGlu-C20 diacid])PILPPTNVGSNT[αMeP]-NH2 (disulfide 2-7 (inferred)) [PD063] |
| 0.909 | RCNTATCATQRLAEFLRHSSNNLK([γGlu-C20 diacid])PILPPTNVGSNT[cis‑Hyp]-NH2 (disulfide 2-7 (inferred)) [PD055] |
| 0.047 | RCNTATCATQRLADFLRHSSNNLK([γGlu-C20 diacid])PILPPTNVGSNTP-NH2 (disulfide 2-7 (inferred)) [PD048] |
| 0.064 | {C20 diacid-βAsp-AEEA-AEEA}-KCNTATCATQRLADFLRHSSNNLKPILPPTNVGSNTP-NH2 (disulfide 2-7 (inferred)) [PD196] |
| 0.039 | {C20 diacid-γGlu}-KCNTATCATQRLADFLRHSSNNLGPILPPTNVGSNT[Hyp]-NH2 (disulfide 2-7 (inferred)) [PD069] |
| 0.319 | RCNTATCATQRLADFLRHSSNNLK([γGlu-C20 diacid])PILPPTNVGSNT[Pip′]-NH2 (disulfide 2-7 (inferred)) [PD058] |
| 0.215 | CNTATCATQRLAEFLRHSSNNLK([γGlu-C20 diacid])PILPPTNVGSNTP-NH2 (disulfide 1-6 (inferred)) [PD049] |
| 0.793 | RCNTATCATQRLAEFLRHSSNNLK([γGlu-C20 diacid])PILPPTNVGSNT[Pip′]-NH2 (disulfide 2-7 (inferred)) [PD057] |
| 0.586 | RCNTATCATQRLADFLRHSSNNLK([γGlu-C20 diacid])PILPPTNVGSNT[cis‑Hyp]-NH2 (disulfide 2-7 (inferred)) [PD056] |
| 0.374 | RCNTATCATQRLADFLRHSSNNLK([γGlu-C20 diacid])PILPPTNVGSNT[3‑Am‑Pro]-NH2 (disulfide 2-7 (inferred)) [PD062] |
| 0.029 | {C20 diacid-γGlu}-KGGGGRCNTATCATQRLADFLRHSSNNLRPILPPTNVGSNTP-NH2 (disulfide 7-12 (inferred)) [PD198] |
| 1.68 | RCNTATCATQRLAEFL[Orn]HSSNNLK([γGlu-C20 diacid])PILPPTNVGSNTP-NH2 (disulfide 2-7 (inferred)) [PD046] |
| 0.364 | RCNTATCATQRLA[Dap]FLRHSSNNLK([γGlu-C20 diacid])PILPPTNVGSNTP-NH2 (disulfide 2-7 (inferred)) [PD045] |
| 2.62 | RCNTATCATQRLA[Dab]FLRHSSNNLK([γGlu-C20 diacid])PILPPTNVGSNTP-NH2 (disulfide 2-7 (inferred)) [PD044] |
| 0.098 | CNTATCATQRLADFLRHSSNNLK([γGlu-C20 diacid])PILPPTNVGSNTP-NH2 (disulfide 1-6 (inferred)) [PD050] |
| 0.074 | {C20 diacid-AEEA-AEEA}-DKCNTATCATQRLADFLRHSSNNLKPILPPTNVGSNTP-NH2 (disulfide 3-8 (inferred)) [PD194] |
